Legend:
[1] = biological target: native human IL-13 (human) (UniProt P35225); experiment: cell-based or functional assay
[2] = biological target: non-human primate (cynomolgus monkey) IL-13 (cynomolgus monkey); experiment: cell-based or functional assay
non-human primate (cynomolgus monkey) IL-13 (cynomolgus monkey), sequence (Q5I6E4 other isoform, or with tags, fused parts or gaps limits assumed): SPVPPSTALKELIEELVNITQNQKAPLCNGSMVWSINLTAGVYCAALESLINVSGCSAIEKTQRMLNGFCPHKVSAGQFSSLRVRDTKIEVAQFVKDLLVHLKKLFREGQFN

native human IL-13 (human), sequence (P35225 other isoform, or with tags, fused parts or gaps limits assumed): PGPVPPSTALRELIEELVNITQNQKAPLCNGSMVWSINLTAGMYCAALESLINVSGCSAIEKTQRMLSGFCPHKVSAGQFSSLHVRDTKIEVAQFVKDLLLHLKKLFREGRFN

STAT6 phosphorylation, IC50 [1]: 0.554 nM | CD23 expression, IC50 [2]: 0.308 nM
B1: antibody with the murine heavy chain of MJ2-7 and a humanized light chain (antibody, part only; not given: humanized light chain, V domains shown, part only)
VH: EVQLQQSGAELVKPGASVKLSCTGSGFNIKDTYIHWVKQRPEQGLEWIGRIDPANDNIKYDPKFQGKATITADTSSNTAYLQLNSLTSEDTAVYYCARSEENWYDFFDYWGQGTTLTVSS

Source: US20090068195A1
